Laboratory results published in patent US12679878B2, “CRF2 receptor agonists and their use in therapy” (SANOFI, priority 2020, dated 2026).
Starred links: 1 amine or outer side, 2 acyl side, 3 side chain; linkers in the order of their positions; H or OH if unused. Non-standard residues stand in square brackets, D forms with d. Groups on a side chain read outwards from the residue. No end group written: not given here. *: point of attachment. C18 diacid = O=C(O)CCCCCCCCCCCCCCCCC(=O)*; γGlu = O=C(O)[C@H](CCC(=O)[*:2])N[*:1]; Palmitoyl = CCCCCCCCCCCCCCCC(=O)*; AEEA = NCCOCCOCC(=O)O; Aib = CC(C)(N)C(=O)O

Target: human corticotropin-releasing factor 2α (CRF2 α receptor) (human), Q13324
Sequence (Q13324 20-411): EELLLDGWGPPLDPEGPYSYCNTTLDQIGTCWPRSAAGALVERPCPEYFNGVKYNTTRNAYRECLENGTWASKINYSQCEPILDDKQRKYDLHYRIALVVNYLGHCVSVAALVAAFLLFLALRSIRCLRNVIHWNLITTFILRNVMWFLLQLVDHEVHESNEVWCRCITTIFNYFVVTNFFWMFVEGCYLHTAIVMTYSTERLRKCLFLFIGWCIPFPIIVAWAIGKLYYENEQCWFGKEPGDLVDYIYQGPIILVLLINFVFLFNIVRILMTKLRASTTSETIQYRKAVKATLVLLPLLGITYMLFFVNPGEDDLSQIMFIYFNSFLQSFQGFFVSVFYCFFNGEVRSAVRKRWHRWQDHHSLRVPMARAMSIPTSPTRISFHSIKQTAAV
Experiment: cell-based or functional assay

B1: SEQ ID NO: 116 (peptide)
peptide: IVLSLDVPIKLK([AEEA-AEEA-γGlu-C18 diacid])QILLKQERQK[Aib]QREKAEKNKQILAQV-NH2
modifications: N-terminus assumed
SMILES: CC[C@H](C)[C@H](N)C(=O)N[C@H](C(=O)N[C@@H](CC(C)C)C(=O)N[C@@H](CO)C(=O)N[C@@H](CC(C)C)C(=O)N[C@@H](CC(=O)O)C(=O)N[C@H](C(=O)N1CCC[C@H]1C(=O)N[C@H](C(=O)N[C@@H](CCCCN)C(=O)N[C@@H](CC(C)C)C(=O)N[C@@H](CCCCNC(=O)COCCOCCNC(=O)COCCOCCNC(=O)CC[C@H](NC(=O)CCCCCCCCCCCCCCCCC(=O)O)C(=O)O)C(=O)N[C@@H](CCC(N)=O)C(=O)N[C@H](C(=O)N[C@@H](CC(C)C)C(=O)N[C@@H](CC(C)C)C(=O)N[C@@H](CCCCN)C(=O)N[C@@H](CCC(N)=O)C(=O)N[C@@H](CCC(=O)O)C(=O)N[C@@H](CCCNC(=N)N)C(=O)N[C@@H](CCC(N)=O)C(=O)N[C@@H](CCCCN)C(=O)NC(C)(C)C(=O)N[C@@H](CCC(N)=O)C(=O)N[C@@H](CCCNC(=N)N)C(=O)N[C@@H](CCC(=O)O)C(=O)N[C@@H](CCCCN)C(=O)N[C@@H](C)C(=O)N[C@@H](CCC(=O)O)C(=O)N[C@@H](CCCCN)C(=O)N[C@@H](CC(N)=O)C(=O)N[C@@H](CCCCN)C(=O)N[C@@H](CCC(N)=O)C(=O)N[C@H](C(=O)N[C@@H](CC(C)C)C(=O)N[C@@H](C)C(=O)N[C@@H](CCC(N)=O)C(=O)N[C@H](C(N)=O)C(C)C)[C@@H](C)CC)[C@@H](C)CC)[C@@H](C)CC)C(C)C)C(C)C
- EC50 [nM], 0% HSA: 0.7 nM

B2: SEQ ID NO: 117 (peptide)
peptide: IVLSLDVPIKLK([AEEA-AEEA-γGlu-C18 diacid])QILLKQERQK[Aib]QRQQAEKNKQILAQV-NH2
modifications: N-terminus assumed
SMILES: CC[C@H](C)[C@H](N)C(=O)N[C@H](C(=O)N[C@@H](CC(C)C)C(=O)N[C@@H](CO)C(=O)N[C@@H](CC(C)C)C(=O)N[C@@H](CC(=O)O)C(=O)N[C@H](C(=O)N1CCC[C@H]1C(=O)N[C@H](C(=O)N[C@@H](CCCCN)C(=O)N[C@@H](CC(C)C)C(=O)N[C@@H](CCCCNC(=O)COCCOCCNC(=O)COCCOCCNC(=O)CC[C@H](NC(=O)CCCCCCCCCCCCCCCCC(=O)O)C(=O)O)C(=O)N[C@@H](CCC(N)=O)C(=O)N[C@H](C(=O)N[C@@H](CC(C)C)C(=O)N[C@@H](CC(C)C)C(=O)N[C@@H](CCCCN)C(=O)N[C@@H](CCC(N)=O)C(=O)N[C@@H](CCC(=O)O)C(=O)N[C@@H](CCCNC(=N)N)C(=O)N[C@@H](CCC(N)=O)C(=O)N[C@@H](CCCCN)C(=O)NC(C)(C)C(=O)N[C@@H](CCC(N)=O)C(=O)N[C@@H](CCCNC(=N)N)C(=O)N[C@@H](CCC(N)=O)C(=O)N[C@@H](CCC(N)=O)C(=O)N[C@@H](C)C(=O)N[C@@H](CCC(=O)O)C(=O)N[C@@H](CCCCN)C(=O)N[C@@H](CC(N)=O)C(=O)N[C@@H](CCCCN)C(=O)N[C@@H](CCC(N)=O)C(=O)N[C@H](C(=O)N[C@@H](CC(C)C)C(=O)N[C@@H](C)C(=O)N[C@@H](CCC(N)=O)C(=O)N[C@H](C(N)=O)C(C)C)[C@@H](C)CC)[C@@H](C)CC)[C@@H](C)CC)C(C)C)C(C)C
- EC50 [nM], 0% HSA: 0.11 nM

B3: SEQ ID NO: 118 (peptide)
peptide: IVLSLD[dV]PIKLK([AEEA-AEEA-γGlu-C18 diacid])QILLKQERQK[Aib]QRQKAEKNKQILAQV-NH2
modifications: N-terminus assumed
SMILES: CC[C@H](C)[C@H](N)C(=O)N[C@H](C(=O)N[C@@H](CC(C)C)C(=O)N[C@@H](CO)C(=O)N[C@@H](CC(C)C)C(=O)N[C@@H](CC(=O)O)C(=O)N[C@@H](C(=O)N1CCC[C@H]1C(=O)N[C@H](C(=O)N[C@@H](CCCCN)C(=O)N[C@@H](CC(C)C)C(=O)N[C@@H](CCCCNC(=O)COCCOCCNC(=O)COCCOCCNC(=O)CC[C@H](NC(=O)CCCCCCCCCCCCCCCCC(=O)O)C(=O)O)C(=O)N[C@@H](CCC(N)=O)C(=O)N[C@H](C(=O)N[C@@H](CC(C)C)C(=O)N[C@@H](CC(C)C)C(=O)N[C@@H](CCCCN)C(=O)N[C@@H](CCC(N)=O)C(=O)N[C@@H](CCC(=O)O)C(=O)N[C@@H](CCCNC(=N)N)C(=O)N[C@@H](CCC(N)=O)C(=O)N[C@@H](CCCCN)C(=O)NC(C)(C)C(=O)N[C@@H](CCC(N)=O)C(=O)N[C@@H](CCCNC(=N)N)C(=O)N[C@@H](CCC(N)=O)C(=O)N[C@@H](CCCCN)C(=O)N[C@@H](C)C(=O)N[C@@H](CCC(=O)O)C(=O)N[C@@H](CCCCN)C(=O)N[C@@H](CC(N)=O)C(=O)N[C@@H](CCCCN)C(=O)N[C@@H](CCC(N)=O)C(=O)N[C@H](C(=O)N[C@@H](CC(C)C)C(=O)N[C@@H](C)C(=O)N[C@@H](CCC(N)=O)C(=O)N[C@H](C(N)=O)C(C)C)[C@@H](C)CC)[C@@H](C)CC)[C@@H](C)CC)C(C)C)C(C)C
- EC50 [nM], 0% HSA: 0.04 nM
- EC50 [nM], 0.1% HSA: 2.13 nM

B4: SEQ ID NO: 11 (peptide)
peptide: FTLSLDVPTKIK([γGlu-Palmitoyl])QKLLKQEKQKKQRQKAKTNAQILAQV-NH2
modifications: N-terminus assumed
SMILES: CCCCCCCCCCCCCCCC(=O)N[C@@H](CCC(=O)NCCCC[C@H](NC(=O)[C@@H](NC(=O)[C@H](CCCCN)NC(=O)[C@@H](NC(=O)[C@@H]1CCCN1C(=O)[C@@H](NC(=O)[C@H](CC(=O)O)NC(=O)[C@H](CC(C)C)NC(=O)[C@H](CO)NC(=O)[C@H](CC(C)C)NC(=O)[C@@H](NC(=O)[C@@H](N)Cc1ccccc1)[C@@H](C)O)C(C)C)[C@@H](C)O)[C@@H](C)CC)C(=O)N[C@@H](CCC(N)=O)C(=O)N[C@@H](CCCCN)C(=O)N[C@@H](CC(C)C)C(=O)N[C@@H](CC(C)C)C(=O)N[C@@H](CCCCN)C(=O)N[C@@H](CCC(N)=O)C(=O)N[C@@H](CCC(=O)O)C(=O)N[C@@H](CCCCN)C(=O)N[C@@H](CCC(N)=O)C(=O)N[C@@H](CCCCN)C(=O)N[C@@H](CCCCN)C(=O)N[C@@H](CCC(N)=O)C(=O)N[C@@H](CCCNC(=N)N)C(=O)N[C@@H](CCC(N)=O)C(=O)N[C@@H](CCCCN)C(=O)N[C@@H](C)C(=O)N[C@@H](CCCCN)C(=O)N[C@H](C(=O)N[C@@H](CC(N)=O)C(=O)N[C@@H](C)C(=O)N[C@@H](CCC(N)=O)C(=O)N[C@H](C(=O)N[C@@H](CC(C)C)C(=O)N[C@@H](C)C(=O)N[C@@H](CCC(N)=O)C(=O)N[C@H](C(N)=O)C(C)C)[C@@H](C)CC)[C@@H](C)O)C(=O)O
- EC50 [nM], 0% HSA: 0.02 nM
